Test results taken from US20150037348A1 (AbbVie / Abbott, published 2015).

How the values were obtained:
human IL-12 [1] = biological target: T1, human IL-12 (human, UniProt P29459 23-219; P29460 23-328); experiment: SPR (BIAcore), IL-12 chip
T1 construct: recombinant human IL-12 heterodimer (p35/p40, disulfide-linked); also called hIL-12; rhIL-12
T1 sequence (looked up) 1: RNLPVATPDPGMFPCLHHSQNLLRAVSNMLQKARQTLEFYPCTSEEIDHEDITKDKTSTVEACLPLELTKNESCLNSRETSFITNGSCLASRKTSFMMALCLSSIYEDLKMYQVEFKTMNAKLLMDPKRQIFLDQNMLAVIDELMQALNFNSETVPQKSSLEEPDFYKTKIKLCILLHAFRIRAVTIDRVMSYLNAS
T1 sequence (looked up) 2: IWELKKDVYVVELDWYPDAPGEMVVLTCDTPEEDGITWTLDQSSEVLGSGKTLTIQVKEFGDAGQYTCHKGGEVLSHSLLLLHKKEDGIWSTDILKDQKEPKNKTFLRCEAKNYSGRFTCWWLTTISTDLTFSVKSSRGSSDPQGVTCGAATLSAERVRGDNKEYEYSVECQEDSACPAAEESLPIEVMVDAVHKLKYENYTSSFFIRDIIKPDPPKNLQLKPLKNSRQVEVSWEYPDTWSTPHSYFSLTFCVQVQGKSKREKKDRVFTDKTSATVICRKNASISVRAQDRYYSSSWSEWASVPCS
Description: The system utilizes the optical properties of SPR to detect alterations in protein concentrations within a dextran biosensor matrix. Proteins are covalently bound to the dextran matrix at known concentrations. […] To determine the off rate (koff), on rate (kₒₙ), association rate (Ka) and dissociation rate (Kd) constants, BIAcore kinetic evaluation software (version 2.1) was used.

human IL-12 [2] = biological target: T1, human IL-12; experiment: RB assay: 125I-hIL-12 binding to PHA blasts
Method: (§1) PHA blast cells isolated as described above, were washed once and resuspended in binding buffer to a cell density of 2×10⁷ cells/ml. […] The cell pellet was examined for cell bound radioactivity using a gamma counter. […] Incubations were carried out in duplicate.

[3] = biological target: T2, recombinant human IL-12 (rhIL-12) (human, UniProt P29459 23-219; P29460 23-328); experiment: receptor binding assay, 125I-hIL-12 on PHA blasts
T2 construct: disulfide-linked p35/p40 heterodimer (p70); also called IL-12 p70; rec. human IL12
T2 sequence (looked up) 1: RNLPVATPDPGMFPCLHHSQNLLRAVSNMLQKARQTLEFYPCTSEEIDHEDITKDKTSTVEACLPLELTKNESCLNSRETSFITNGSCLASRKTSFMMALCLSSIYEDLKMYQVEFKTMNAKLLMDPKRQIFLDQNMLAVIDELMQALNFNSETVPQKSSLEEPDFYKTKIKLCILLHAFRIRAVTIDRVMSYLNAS
T2 sequence (looked up) 2: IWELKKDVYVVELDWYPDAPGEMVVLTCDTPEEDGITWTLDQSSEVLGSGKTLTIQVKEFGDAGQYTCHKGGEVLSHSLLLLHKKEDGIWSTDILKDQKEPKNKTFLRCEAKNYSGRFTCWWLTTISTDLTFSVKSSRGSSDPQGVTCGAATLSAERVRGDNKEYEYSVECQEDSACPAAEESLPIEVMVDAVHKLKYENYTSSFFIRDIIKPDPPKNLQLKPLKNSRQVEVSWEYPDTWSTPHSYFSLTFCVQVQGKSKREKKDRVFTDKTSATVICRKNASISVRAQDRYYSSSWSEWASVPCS
Method: as §1

[4] = biological target: T2, recombinant human IL-12 (rhIL-12); experiment: BIAcore SPR, IL-12 on chip
[5] = biological target: T2, recombinant human IL-12 (rhIL-12); experiment: cell-based or functional assay

B1: 78-35 (scFv, V domains shown)
VH: QVQLVQSGGGVVQPGRSLRLSCAASGFTFSSYGMHWVRQAPGKGLEWVAFIRYDGSNKYYADSVKGRFTISRDNSKNTLYLQMKSLRAEDTAVYYCTTSGSYDYWGQGTMVTVSS
VL: SYVLTQPPSVSGTPGQRVTISCSGGRSNIGSNTVKWYQQLPGTAPKLLIYGNDQRPSGVPDRFSGSKSGTSASLAITGVQAEDEADYYCQSYDSSLTGSRVFGTGTKVTVL
notes: scFv
Binder B1 has a koff (human IL-12 [1]) of 0.0499 s⁻¹ and an IC50 (human IL-12 [2]) of 400 nM.

B2: Y61 (scFv, V domains shown)
VH: QVQLVQSGGGVVQPGRSLRLSCAASGFTFSSYGMHWVRQAPGKGLEWVAFIRYDGSNKYYADSVKGRFTISRDNSKNTLYLQMKSLRAEDTAVYYCKTHGSHDNWGQGTMVTVSS
VL: SYVLTQPPSVSGTPGQRVTISCSGGRSNIGSNTVKWYQQLPGTAPKLLIYGNDQRPSGVPDRFSGSKSGTSASLAITGVQAEDEADYYCQSYDRGTHPALLFGTGTKVTVL
notes: also called Y61 scFv; clone Y61; not shown: scFv linker and any tags
With B2 the IC50 [3] was 0.04 nM, the koff [4] was 0.000275 s⁻¹ and the “PHA assay IC50” value [5] was 0.14 nM.

B3: 73-B7 (scFv, V domains shown)
VH: QVQLVQSGGGVVQPGRSLRLSCAASGFTFSSYGMHWVRQAPGKGLEWVAFIRYDGSNKYYADSVKGRFTISRDNSKNTLYLQMKSLRAEDTAVYYCTTHGSQDNWGQGTMVTVSS
VL: SYVLTQPPSVSGTPGQRVTISCSGGRSNIGSNTVKWYQQLPGTAPKLLIYGNDQRPSGVPDRFSGSKSGTSASLAITGVQAEDEADYYCQSYDSSLRGSRVFGTGTKVTVLG
B3 gave a koff (human IL-12 [1]) of 0.0025 s⁻¹ and an IC50 (human IL-12 [2]) of 7 nM.

B4: L3.3R3M-H11 (scFv, V domains shown)
VH: QVQLVQSGGGVVQPGRSLRLSCAASGFTFSSYGMHWVRQAPGKGLEWVAFIRYDGSNKYYADSVKGRFTISRDNSKNTLYLQMKSLRAEDTAVYYCKTHGSHDNWGQGTMVTVSS
VL: SYVLTQPPSVSGTPGQRVTISCSGGRSNIGSNTVKWYQQLPGTAPKLLIYGNDQRPSGVPDRFSGSKSGTSASLAITGVQAEDEADYYCQSYDRGMIPALTFGTGTKVTVL
notes: scFv clone
B4 showed a koff [4] of 3.95 s⁻¹.

B5: L3.3R3M-H6 (scFv, V domains shown)
VH: QVQLVQSGGGVVQPGRSLRLSCAASGFTFSSYGMHWVRQAPGKGLEWVAFIRYDGSNKYYADSVKGRFTISRDNSKNTLYLQMKSLRAEDTAVYYCKTHGSHDNWGQGTMVTVSS
VL: SYVLTQPPSVSGTPGQRVTISCSGGRSNIGSNTVKWYQQLPGTAPKLLIYGNDQRPSGVPDRFSGSKSGTSASLAITGVQAEDEADYYCQSYDRGNWPNSNFGTGTKVTVL
notes: scFv clone
With B5 the koff [4] was 5.69 s⁻¹.

B6: 101-11 IgG1 (antibody, V domains shown)
VH: QVQLVQSGGGVVQPGRSLRLSCAASGFTFSSYGMHWVRQAPGKGLEWVAFIRYDGSNKYYADSVKGRFTISRDNSKNTLYLQMKSLRAEDTAVYYCTTHGSHDNWGQGTMVTVSS
VL: SYVLTQPPSVSGTPGQRVTISCSGGRSNIGSNTVKWYQQLPGTAPKLLIYGNDQRPSGVPDRFSGSKSGTSASLAITGVQAEDEADYYCQSYDRGFTGSRVFGTGTKVTVL
notes: IgG1
B6 was tested, and the IC50 (human IL-12 [2]) was 1.6 nM.

B7: L3.3R3M-B3 (scFv, V domains shown)
VH: QVQLVQSGGGVVQPGRSLRLSCAASGFTFSSYGMHWVRQAPGKGLEWVAFIRYDGSNKYYADSVKGRFTISRDNSKNTLYLQMKSLRAEDTAVYYCKTHGSHDNWGQGTMVTVSS
VL: SYVLTQPPSVSGTPGQRVTISCSGGRSNIGSNTVKWYQQLPGTAPKLLIYGNDQRPSGVPDRFSGSKSGTSASLAITGVQAEDEADYYCQSYDRGFTGSMVFGTGTKVTVL
notes: scFv clone
B7 gave a koff [4] of 5.51 s⁻¹.

B8: 149-9 (scFv, V domains shown)
VH: QVQLVQSGGGVVQPGRSLRLSCAASGFTFSSYGMHWVRQAPGKGLEWVAFIRYDGSNKYYADSVKGRFTISRDNSKNTLYLQMKSLRAEDTAVYYCKTHGSHDNWGHGTMVTVSS
VL: SYVLTQPPSVSGTPGQRVTISCSGGRSNIGSNTVKWYQQLPGTAPKLLIYGNDQRPSGVPDRFSGSKSGTSASLAITGVQAEDEADYYCQSYERGFTGSMVFGTGTKVTVL
notes: scFv
B8 gave a koff (human IL-12 [1]) of 0.00354 s⁻¹ and an IC50 (human IL-12 [2]) of 0.18 nM.

B9: L3.3R3M-G8 (scFv, V domains shown)
VH: QVQLVQSGGGVVQPGRSLRLSCAASGFTFSSYGMHWVRQAPGKGLEWVAFIRYDGSNKYYADSVKGRFTISRDNSKNTLYLQMKSLRAEDTAVYYCKTHGSHDNWGQGTMVTVSS
VL: SYVLTQPPSVSGTPGQRVTISCSGGRSNIGSNTVKWYQQLPGTAPKLLIYGNDQRPSGVPDRFSGSKSGTSASLAITGVQAEDEADYYCQSYDRGSYPALRFGTGTKVTVL
notes: scFv clone
With B9 the koff [4] was 5.55 s⁻¹.

B10: 170-25 (scFv, V domains shown)
VH: QVQLVQSGGGVVQPGRSLRLSCAASGFTFSSYGMHWVRQAPGKGLEWVAFIRYDGSNKYYADSVKGRFTISRDNSKNTLYLQMKSLRAEDTAVYYCTTHGSQDTWGQGTMVTVSS
VL: SYVLTQPPSVSGTPGQRVTISCSGGRSNIGSNTVKWYQQLPGTAPKLLIYGNDQRPSGVPDRFSGSKSGTSASLAITGVQAEDEADYYCQSYDSSLRGSRVFGTGTKVTVL
notes: scFv
For B10, the koff (human IL-12 [1]) was 0.0005 s⁻¹ and the IC50 (human IL-12 [2]) was 0.05 nM.

B11: 136-24 (scFv, V domains shown)
VH: QVQLVQSGGGVVQPGRSLRLSCAASGFTFSSYGMHWVRQAPGKGLEWVAFIRYDGSNKYYADSVKGRFTISRDNSKNTLYLQMKSLRAEDTAVYYCTTHGSHDNWGQGTMVTVSS
VL: SYVLTQPPSVSGTPGQRVTISCSGGRSNIGSNTVKWYQQLPGTAPKLLIYGNDQRPSGVPDRFSGSKSGTSASLAITGVQAEDEADYYCQSYDNAVTASKVFGTGTKVTVL
notes: scFv
With B11 the koff (human IL-12 [1]) was 0.00089 s⁻¹ and the IC50 (human IL-12 [2]) was 1 nM.

B12: A12 (scFv, V domains shown)
VH: QVQLVQSGGGVVQPGRSLRLSCAASGFTFSSYGMHWVRQAPGKGLEWVAFIRYDGSNKYYADSVKGRFTISRDNSKNTLYLQMKSLRAEDTAVYYCKTHGSHDNWGQGTMVTVSS
VL: SYVLTQPPSVSGTPGQRVTISCSGGRSNIGSNTVKWYQQLPGTAPKLLIYGNDQRPSGVPDRFSGSKSGTSASLAITGVQAEDEADYYCQSYDRGTTPRPMFGTGTKVTVL
notes: scFv clone
B12 gave an IC50 [3] of 0.25 nM and a koff [4] of 0.000557 s⁻¹.

B13: Y61-L50Y (scFv, V domains shown)
VH: QVQLVQSGGGVVQPGRSLRLSCAASGFTFSSYGMHWVRQAPGKGLEWVAFIRYDGSNKYYADSVKGRFTISRDNSKNTLYLQMKSLRAEDTAVYYCKTHGSHDNWGQGTMVTVSS
VL: QSVLTQPPSVSGAPGQRVTISCSGSRSNIGSNTVKWYQQLPGTAPKLLIYYNDQRPSGVPDRFSGSKSGTSASLAITGLQAEDEADYYCQSYDRGTHPALLFGTGTKVTVL
B13 was tested, and the IC50 [3] was 0.02 nM and the “IFN gamma IC50” value [5] was 0.02 nM.

B14: 170-23 (scFv, V domains shown)
V domain 1: QVQLVQSGGGVVQPGRSLRLSCAASGFTFSSYGMHWVRQAPGKGLEWVAFIRYDGSNKYYADSVKGRFTISRDNSKNTLYLQMKSLRAEDTAVYYCTTHGSHDNWGQGTMVTVSS
V domain 2: SYVLTQPPSVSGTPGQRVTISCSGGRSNIGSNTVKWYQQLPGTAPKLLIYGNDQRPSGVPDRFSGSKSGTSASLAITGVQAEDEADYYCQSYDRGFTGARVWGTGTKVTVL
notes: scFv
B14 gave a koff (human IL-12 [1]) of 0.001 s⁻¹ and an IC50 (human IL-12 [2]) of 0.2 nM.

B15: L3.3R3M-G7 (scFv, V domains shown)
VH: QVQLVQSGGGVVQPGRSLRLSCAASGFTFSSYGMHWVRQAPGKGLEWVAFIRYDGSNKYYADSVKGRFTISRDNSKNTLYLQMKSLRAEDTAVYYCKTHGSHDNWGQGTMVTVSS
VL: SYVLTQPPSVSGTPGQRVTISCSGGRSNIGSNTVKWYQQLPGTAPKLLIYGNDQRPSGVPDRFSGSKSGTSASLAITGVQAEDEADYYCQSYDRGFTGSMVFGTGTKVTVL
notes: scFv clone
With B15 the koff [4] was 4.24 s⁻¹.

B16: A4 (scFv, V domains shown)
VH: QVQLVQSGGGVVQPGRSLRLSCAASGFTFSSYGMHWVRQAPGKGLEWVAFIRYDGSNKYYADSVKGRFTISRDNSKNTLYLQMKSLRAEDTAVYYCKTHGSHDNWGQGTMVTVSS
VL: SYVLTQPPSVSGTPGQRVTISCSGGRSNIGSNTVKWYQQLPGTAPKLLIYGNDQRPSGVPDRFSGSKSGTSASLAITGVQAEDEADYYCQSYDRGRNPALTFGTGTKVTVL
notes: scFv clone
B16 was tested, and the IC50 [3] was 0.25 nM and the koff [4] was 0.00063 s⁻¹.

B17: A5 (scFv, V domains shown)
VH: QVQLVQSGGGVVQPGRSLRLSCAASGFTFSSYGMHWVRQAPGKGLEWVAFIRYDGSNKYYADSVKGRFTISRDNSKNTLYLQMKSLRAEDTAVYYCKTHGSHDNWGQGTMVTVSS
VL: SYVLTQPPSVSGTPGQRVTISCSGGRSNIGSNTVKWYQQLPGTAPKLLIYGNDQRPSGVPDRFSGSKSGTSASLAITGVQAEDEADYYCQSYDRGTHPSMLFGTGTKVTVL
notes: scFv clone
Binder B17 has an IC50 [3] of 0.066 nM and a koff [4] of 0.00045 s⁻¹.
